RSK2 ubiquitination data for 1 substance are collected here from patent US20100204053.

This series concerns RSK2.

Chain of RSK2 (chain, as listed by the source): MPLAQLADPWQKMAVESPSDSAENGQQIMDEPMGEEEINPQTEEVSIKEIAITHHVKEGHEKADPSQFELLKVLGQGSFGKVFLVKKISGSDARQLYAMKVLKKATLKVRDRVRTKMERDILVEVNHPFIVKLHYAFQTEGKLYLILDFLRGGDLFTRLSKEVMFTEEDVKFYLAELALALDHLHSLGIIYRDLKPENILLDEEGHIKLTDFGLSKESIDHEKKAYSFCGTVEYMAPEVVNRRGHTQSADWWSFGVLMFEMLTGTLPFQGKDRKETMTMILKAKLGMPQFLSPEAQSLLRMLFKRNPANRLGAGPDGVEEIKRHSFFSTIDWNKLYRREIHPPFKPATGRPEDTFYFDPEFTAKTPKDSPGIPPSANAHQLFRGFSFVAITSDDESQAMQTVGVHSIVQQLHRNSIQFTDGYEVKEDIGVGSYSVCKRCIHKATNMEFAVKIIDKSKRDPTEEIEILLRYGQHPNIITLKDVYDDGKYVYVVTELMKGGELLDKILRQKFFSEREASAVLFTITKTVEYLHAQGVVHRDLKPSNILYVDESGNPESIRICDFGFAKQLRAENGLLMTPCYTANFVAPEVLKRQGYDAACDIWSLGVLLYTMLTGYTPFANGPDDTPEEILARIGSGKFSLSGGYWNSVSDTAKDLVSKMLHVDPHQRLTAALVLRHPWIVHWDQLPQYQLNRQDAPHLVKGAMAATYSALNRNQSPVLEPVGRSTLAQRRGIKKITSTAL

In the case of WWP1, the RSK2 ubiquitination entry was “SHN3 and WWP1 can promote RSK2 ubiquitination”.
